According to publication PMC11535040, “Requirement of Nek2a and cyclin A2 for Wapl-dependent removal of cohesin from prophase chromatin” (The EMBO Journal, 2024):

Assays:
[1] = target: T1, Flag-tagged Pds5b (wild type) from cells co-expressing Δ86-cyclin A2 (human, UniProt Q9NTI5 1-1447, phosphoserine at 1161 and 1166 (by Cdk1/2-cyclin A2)); assay: pull-down; Flag-Pds5a or -b affinity-purified on anti-Flag beads from chromatin-free lysates of taxol-arrested Hek293T cells (expressed alone or with Nek2aΔMR and/or Δ86-cyclin A2); beads incubated with a mixture of recombinant Wapl (2 µl) and sororin (0.3 µg) in 15 µl cleavage buffer with kinase inhibitors, 20 min at 37 °C; bound and unbound fractions by immunoblotting; conditions: both partners purified
T1 construct: Pds5b, human; insert by PCR on human cDNA; their state in this preparation was not measured; source: Hek293T co-expressing eGFP-Δ86-cyclin A2, taxol-arrested
T1 sequence (looked up): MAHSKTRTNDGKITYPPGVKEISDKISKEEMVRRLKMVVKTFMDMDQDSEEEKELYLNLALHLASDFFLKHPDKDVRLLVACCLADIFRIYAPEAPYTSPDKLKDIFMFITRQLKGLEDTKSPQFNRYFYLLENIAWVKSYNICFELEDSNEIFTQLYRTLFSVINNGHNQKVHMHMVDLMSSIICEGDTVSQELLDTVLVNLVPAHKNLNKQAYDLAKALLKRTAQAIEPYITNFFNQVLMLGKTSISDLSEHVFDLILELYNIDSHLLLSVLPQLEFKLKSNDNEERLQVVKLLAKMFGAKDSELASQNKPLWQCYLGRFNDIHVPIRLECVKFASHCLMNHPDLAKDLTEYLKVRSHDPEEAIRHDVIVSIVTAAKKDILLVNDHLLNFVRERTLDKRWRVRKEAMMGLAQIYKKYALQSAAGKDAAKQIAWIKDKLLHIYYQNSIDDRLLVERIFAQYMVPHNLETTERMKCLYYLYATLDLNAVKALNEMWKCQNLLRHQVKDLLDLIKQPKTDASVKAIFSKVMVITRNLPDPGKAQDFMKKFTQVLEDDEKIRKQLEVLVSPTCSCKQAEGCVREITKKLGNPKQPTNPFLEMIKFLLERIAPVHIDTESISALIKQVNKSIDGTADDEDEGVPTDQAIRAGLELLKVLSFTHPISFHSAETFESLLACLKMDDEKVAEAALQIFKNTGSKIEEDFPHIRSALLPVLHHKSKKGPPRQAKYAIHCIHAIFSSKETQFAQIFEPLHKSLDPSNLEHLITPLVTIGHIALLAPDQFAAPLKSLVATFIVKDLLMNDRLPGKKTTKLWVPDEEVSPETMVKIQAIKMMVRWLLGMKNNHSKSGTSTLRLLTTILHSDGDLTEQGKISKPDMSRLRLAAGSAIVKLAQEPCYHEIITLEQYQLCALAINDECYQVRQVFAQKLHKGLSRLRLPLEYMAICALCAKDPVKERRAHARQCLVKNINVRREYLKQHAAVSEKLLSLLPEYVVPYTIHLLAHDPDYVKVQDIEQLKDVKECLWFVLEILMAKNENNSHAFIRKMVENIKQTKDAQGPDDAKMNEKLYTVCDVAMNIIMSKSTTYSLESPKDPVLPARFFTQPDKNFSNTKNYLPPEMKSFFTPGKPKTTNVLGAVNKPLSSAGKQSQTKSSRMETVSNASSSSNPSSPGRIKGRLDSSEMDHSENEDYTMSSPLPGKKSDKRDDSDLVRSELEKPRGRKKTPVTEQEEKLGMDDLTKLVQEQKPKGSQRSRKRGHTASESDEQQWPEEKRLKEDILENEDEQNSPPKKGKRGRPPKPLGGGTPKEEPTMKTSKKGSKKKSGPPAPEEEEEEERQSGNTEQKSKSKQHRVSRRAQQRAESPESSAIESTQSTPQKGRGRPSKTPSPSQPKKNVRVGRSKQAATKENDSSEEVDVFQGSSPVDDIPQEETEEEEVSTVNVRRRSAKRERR

[2] = target: T2, Flag-tagged Pds5b (wild type) from cells co-expressing Nek2aΔMR (human, UniProt Q9NTI5 1-1447, phosphoserine at 1177, 1182 and 1209 (by Nek2a)); assay: as above; conditions: both partners purified
T2 construct: Pds5b, human; insert by PCR on human cDNA; their state in this preparation was not measured; source: Hek293T co-expressing eGFP-Nek2aΔMR, taxol-arrested
T2 sequence (looked up): T1 sequence (looked up)

B1: recombinant human Wapl (natural protein, UniProt Q7Z5K2 1-1190, looked up)
chain: MTSRFGKTYSRKGGNGSSKFDEVFSNKRTTLSTKWGETTFMAKLGQKRPNFKPDIQEIPKKPKVEEESTGDPFGFDSDDESLPVSSKNLAQVKCSSYSESSEAAQLEEVTSVLEANSKISHVVVEDTVVSDKCFPLEDTLLGKEKSTNRIVEDDASISSCNKLITSDKVENFHEEHEKNSHHIHKNADDSTKKPNAETTVASEIKETNDTWNSQFGKRPESPSEISPIKGSVRTGLFEWDNDFEDIRSEDCILSLDSDPLLEMKDDDFKNRLENLNEAIEEDIVQSVLRPTNCRTYCRANKTKSSQGASNFDKLMDGTSQALAKANSESSKDGLNQAKKGGVSCGTSFRGTVGRTRDYTVLHPSCLSVCNVTIQDTMERSMDEFTASTPADLGEAGRLRKKADIATSKTTTRFRPSNTKSKKDVKLEFFGFEDHETGGDEGGSGSSNYKIKYFGFDDLSESEDDEDDDCQVERKTSKKRTKTAPSPSLQPPPESNDNSQDSQSGTNNAENLDFTEDLPGVPESVKKPINKQGDKSKENTRKIFSGPKRSPTKAVYNARHWNHPDSEELPGPPVVKPQSVTVRLSSKEPNQKDDGVFKAPAPPSKVIKTVTIPTQPYQDIVTALKCRREDKELYTVVQHVKHFNDVVEFGENQEFTDDIEYLLSGLKSTQPLNTRCLSVISLATKCAMPSFRMHLRAHGMVAMVFKTLDDSQHHQNLSLCTAALMYILSRDRLNMDLDRASLDLMIRLLELEQDASSAKLLNEKDMNKIKEKIRRLCETVHNKHLDLENITTGHLAMETLLSLTSKRAGDWFKEELRLLGGLDHIVDKVKECVDHLSRDEDEEKLVASLWGAERCLRVLESVTVHNPENQSYLIAYKDSQLIVSSAKALQHCEELIQQYNRAEDSICLADSKPLPHQNVTNHVGKAVEDCMRAIIGVLLNLTNDNEWGSTKTGEQDGLIGTALNCVLQVPKYLPQEQRFDIRVLGLGLLINLVEYSARNRHCLVNMETSCSFDSSICSGEGDDSLRIGGQVHAVQALVQLFLERERAAQLAESKTDELIKDAPTTQHDKSGEWQETSGEIQWVSTEKTDGTEEKHKKEEEDEELDLNKALQHAGKHMEDCIVASYTALLLGCLCQESPINVTTVREYLPEGDFSIMTEMLKKFLSFMNLTCAVGTTGQKSISRVIEYLEHC
notes: Wapl, human; insert by PCR on human cDNA; Isolated from mitotically arrested cells; also called GFP-SUMOstar-Wapl; source: Hek293T, transiently transfected, taxol-arrested; not shown: GFP, N-terminal, cleaved; SUMOstar, N-terminal, cleaved
**Q.** Does B1 bind [1]?
**A.** binds

**Q.** Does B1 bind [2]?
**A.** binds
